Test results from patent US20220401560A1, “PEPTIDE ENCAPSULATING FERRITIN” (Ajinomoto Co., Inc., priority 2019, published 2022).
No end group written: not given here.

Target: T1, ferritin (FTH) (Homo sapiens, UniProt P02794)
T1 construct: made in house; host or cells: Escherichia coli BL21 (DE3), plasmid pET20-FTH
Assay: Encapsulation of fluorescent dye-modified peptide into FTH, column chromatography with absorbance at 480 nm and LC-MS
Experimental: Of a 50 mM glycine hydrochloride buffer (pH 2.3) that contains FTH (chemical formula weight: 509,421) at a final concentration of 5 mg/mL and the peptide at a final concentration of 0.5 mM, 0.5 mL was left to stand at room temperature for 15 minutes. Next, 50 μL of a 1 M Tris hydrochloride buffer (pH 9.0) was added for neutralization, and the resulting solution was left to stand at room temperature for 3 hours. After the standing, the resulting solution was centrifuged (at 15,000 rpm for one minute). Then, the supernatant was collected and the volume was increased up to 3 mL with a 10 mM Tris hydrochloride buffer (pH 8). The resulting solution was injected into the HiPrep 26/60 Sephacryl S-300 HR column (GE Healthcare Inc.) equilibrated with a 10 mM Tris-HCl buffer (pH 8.0) to separate and purify 24-mer FTH by size at a flow rate of 1.3 mL/minute. The purified ferritin was analyzed using a HiPrep 16/60 Sephacryl S-300 HR column (GE Healthcare Inc.) equilibrated with a 10 mM Tris-HCl buffer (pH 8.0) at a flow rate of 0.5 mL/minute and confirmed as the absorbance at 480 nm unobservable from FTH only, at the same position as that of a peak of FTH.
The solution containing the FTH was concentrated to 0.25 mL by centrifugal ultrafiltration using Vivaspin 20-100K (GE Healthcare Inc.). […] For the LC-MS analysis, 50 μL of a 1 M glycine hydrochloride buffer (pH 2.3) was added to 50 μL of the sample solution and then the resulting solution was left to stand at room temperature for 15 minutes. To the solution 900 μL of ethanol was added. Next, the resulting solution was stirred vigorously and then centrifuged (at 15,000 rpm for five minutes) to collect its supernatant. The supernatant was analyzed using LCMS-2020 (Shimadzu Corporation) as LC-MS, inertsil (Registered trademark) ODS-3 with a particle diameter of 2 μm and 2.1 mm×50 mm (GL science) as a column. Into the column, 10 μL of the sample was injected, and eluded at a flow rate of 0.2 mL/min for 10 minutes such that a mixing ratio of a solution A (0.1% formic acid/99.9% acetonitrile) and a solution B (50% water/50% acetonitrile) was from 95:5 to 95:5. The concentration of the contained protein was determined using a protein assay CBB solution (Nacalai Tesque, Inc.) in terms of bovine albumin as a standard. The concentration of the encapsulated peptide was determined based on the absorbance at 480 nm of the fluorescent dye FAM to which PKC-F is modified.
First, the construction of FTH encapsulating two kinds of fluorescent dye-modified peptides [5(6)—FAM-[…] (SEQ ID NO: 10), FAM-SV40, chemical formula weight 1,516, and 5(6)—FAM-[…] […] (SEQ ID NO: 11), FAN-Np, chemical formula weight 384] was attempted. 0.5 mL of a 50 mM glycine hydrochloride buffer (pH 2.3) that contains FTH (chemical formula weight 509,421) at a final concentration of 5 mg/mL and a peptide at a final concentration of 0.5 mM, was left to stand at room temperature for 15 minutes. Next, 50 μL of a 1 M Tris hydrochloride buffer (pH 9.0) was added for neutralization, and the resulting solution was left to stand at room temperature for 3 hours. […] The absorbance at […] was confirmed at the same elusion position as that of ferritin 24-mer, for ferritin that was used for the operation to encapsulate FAM-SV40 therein. […] Next, the peptide amount of FAM-SV40 encapsulated in purified ferritin was quantified based on the 480 nm absorbance and by CBB staining with use of ferritin-amount-albumin as a standard.

T1 sequence (P02794 whole entry): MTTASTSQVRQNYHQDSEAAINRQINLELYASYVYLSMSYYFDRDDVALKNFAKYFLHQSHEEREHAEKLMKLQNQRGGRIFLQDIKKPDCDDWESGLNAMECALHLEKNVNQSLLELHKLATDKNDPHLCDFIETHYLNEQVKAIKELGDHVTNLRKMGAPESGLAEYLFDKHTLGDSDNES

## 5(6)-FAM-CGGPKKKRKVG (SEQ ID NO: 10) ({5(6)‑FAM}-CGGPKKKRKVG) [FAM-SV40, fluorescent dye-modified peptide, linear]
FTH, from molar ratio
  molecules of peptide encapsulated in one molecule of ferritin on average: 2.5 molecules
Absorbance at 480 nm at elution position of 24-mer FTH, LC-MS
  encapsulation of peptide in FTH: encapsulated in ferritin
